Measurements reported in patent US20160280792A1 (Kyowa Kirin, published 2016).
Numbering of substitutions follows the chain as printed.

Legend:
Assay in all cases: flow cytometry, labelled antibody at 1 µg/ml, HEK293T cells expressing the construct
[1] = molecular target: T1, IL-3Rα/GM-CSFRα chimeric protein, B domain of IL-3Rα replaced by that of GM-CSFRα, on HEK293T cells (human, UniProt P15509 115-213)
T1 construct: domain: B domain; The KpnI sites (GGTACC) at both junctions each encode an extra Gly-Thr; also called B domain substitution
T1 sequence: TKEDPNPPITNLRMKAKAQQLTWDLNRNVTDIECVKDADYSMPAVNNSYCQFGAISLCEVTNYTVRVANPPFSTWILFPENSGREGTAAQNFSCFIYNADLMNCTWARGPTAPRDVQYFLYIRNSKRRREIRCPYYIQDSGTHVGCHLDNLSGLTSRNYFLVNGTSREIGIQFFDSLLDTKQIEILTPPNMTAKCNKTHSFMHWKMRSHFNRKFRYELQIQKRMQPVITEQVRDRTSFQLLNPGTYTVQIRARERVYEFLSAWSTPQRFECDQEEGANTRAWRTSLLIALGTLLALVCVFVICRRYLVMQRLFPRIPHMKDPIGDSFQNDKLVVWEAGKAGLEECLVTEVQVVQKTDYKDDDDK
Method: (§1) HEK293T cell (ATCC CRL 1268) was used for the preparation of the IL-3Rα/GM-CSFRα chimeric protein expression cell. Using 293Fectin (Invitrogen), the plasmid DNA obtained in the above was introduced as an expression vector into the HEK293T. The HEK293T to which the expression vector was introduced was cultured using a shaker under conditions of 5% CO₂ and 37° C. after 2 days of the introduction, the […] was used for in the flow cytometry analysis.
(§2) From 100,000 to 1,000,000 cells of the chimeric protein expression cell were allowed to react for 30 minutes on ice with at a concentration of 1 μg/ml with an AlexaFlour488-labeled human antibody or a commercially available FITC-labeled anti-IL-3Rα mouse antibody (7G3 or 9F5: both from BD Biosciences, 6H6: Acris Antibodies, AC145: Milteny Biotech, 107D2.08: Dendritics). A staining medium (Dulbecco's PBS supplemented with 2% fetal bovine serum, 2 mM EDTA and 0.05% NaN₃) was used for the dilution of antibodies and cells. Next, the cells reacted with antibodies were washed three times with the staining medium and whether the labeled antibody bound to the cell was confirmed by flow cytometry.

[2] = molecular target: T2, IL-3Rα/GM-CSFRα chimeric protein, A domain of IL-3Rα replaced by that of GM-CSFRα, on HEK293T cells (human, UniProt P15509 23-114)
T2 construct: domain: A domain; The KpnI site (GGTACC) at the junction encodes an extra Gly-Thr; also called A domain substitution
T2 sequence: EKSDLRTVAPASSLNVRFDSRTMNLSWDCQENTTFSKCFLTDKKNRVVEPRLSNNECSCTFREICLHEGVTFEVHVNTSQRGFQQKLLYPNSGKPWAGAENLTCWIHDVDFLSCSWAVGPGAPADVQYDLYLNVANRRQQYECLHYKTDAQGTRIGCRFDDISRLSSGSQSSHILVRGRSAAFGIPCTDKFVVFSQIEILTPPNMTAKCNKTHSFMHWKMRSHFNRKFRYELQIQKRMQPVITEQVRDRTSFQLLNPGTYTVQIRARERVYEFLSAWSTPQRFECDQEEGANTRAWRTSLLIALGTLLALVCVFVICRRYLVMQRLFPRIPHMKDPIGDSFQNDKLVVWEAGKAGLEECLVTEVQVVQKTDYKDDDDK
Method: as §1, §2

[3] = molecular target: T3, IL-3Rα/GM-CSFRα chimeric protein, region 6 (182-ILVRGRS-188) of IL-3Rα replaced by GM-CSFRα sequence, on … (human, UniProt P26951 19-378)
T3 construct: also called Region 6 (B)
T3 chain: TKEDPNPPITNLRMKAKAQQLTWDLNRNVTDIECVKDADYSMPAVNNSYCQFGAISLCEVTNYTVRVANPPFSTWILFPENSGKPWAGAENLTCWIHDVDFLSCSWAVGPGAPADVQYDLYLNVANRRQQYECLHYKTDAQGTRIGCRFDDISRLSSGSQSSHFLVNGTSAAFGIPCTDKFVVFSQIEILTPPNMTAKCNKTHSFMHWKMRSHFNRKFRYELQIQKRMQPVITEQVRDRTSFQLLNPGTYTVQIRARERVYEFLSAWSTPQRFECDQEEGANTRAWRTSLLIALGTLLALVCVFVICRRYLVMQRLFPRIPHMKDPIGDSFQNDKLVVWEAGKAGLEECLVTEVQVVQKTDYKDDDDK

[4] = molecular target: T4, IL-3Rα/GM-CSFRα chimeric protein, region 7 (192-GIPCTDK-198) of IL-3Rα replaced by GM-CSFRα sequence, on … (human, UniProt P26951 19-378)
T4 construct: also called Region 7 (B)
T4 chain: T3 chain with F164I, N167R, T169R, P176Q, C177F, T178F, K180S

[5] = molecular target: T5, IL-3Rα/GM-CSFRα chimeric protein, region 3 (91-STWILFPE-98) of IL-3Rα replaced by GM-CSFRα sequence, on … (human, UniProt P26951 19-378)
T5 construct: also called Region 3 (A)
T5 chain: T3 chain with S73Q, T74Q, W75K, I76L, F78Y, E80N, F164I, N167R, T169R

Measured: binding result

B1: Old19 anti-human IL-3Rα human antibody (antibody, human IgG1, V domains shown)
VH: QVQLVQSGAEVKKPGSSVKVSCKASGGTFSSYAISWVRQAPGQGLEWVGGIIPIFGTANYAQKFQGRVTITADESTSTAYMELSSLRSEDTAVYYCARGHKYGPYYFDYWGQGTLVTVSS
VL: DIQMTQSPSSLSASVGDRVTITCRASQGISSWLAWYQQKPEKAPKSLIYAASSLQSGVPSRFSGSGSGTDFTLTISSLQPEDFATYYCQQYNSYPRTFGQGTKVEIK
notes: Human antibody; recombinant form in N5KG1-Val Lark vector (human IgG1, kappa)
no binding (tested: 1 µg/ml): all assays above
